Consider 7 molecules from patent publication JP2023032631A (dated 2023).

To fix the notation:
B1: 抗SARS-CoV-2 RBD VHH抗体 A03 (VHH, not shown: small tags and cut ends)
VHH: QVQLVESGGALVQPGGSLRLSCAASGFPVNHNAMHWFRQAPGKERESVAGISHVVYRTYYEDSVKGRFTISRDDARNTVYLQMNSLKPEDTAVYYCAAVALTDLRLYWGQGTQVTVGG
notes: also called A03
B2: 抗SARS-CoV-2 RBD VHH抗体 A02 (VHH, not shown: small tags and cut ends)
VHH: QVQLVESGGALVQPGGSLRLSCAASGFPVNRNTMHWFRQAPGKEREGVAGISSRGDWTYYEDSVKGRFTISRDDARNTVYLQMNSLKPEDTAVYYCAAYLWLLGGVYWGQGTQVTVGG
notes: also called A02
B3: 抗SARS-CoV-2 RBD VHH抗体 A15 (VHH, not shown: small tags and cut ends)
VHH: QVQLVESGGALVQPGGSLRLSCAASGFPVNRNTMHWYRQAPGKEREGVAGISSRGDWTYYEDSVKGRFTISRDDARNTVYLQMSSLKPEDTAVYYCAAVGVLSVSAFGWLYWGQGTQVTVGG
notes: also called A15
B4: 抗SARS-CoV-2 RBD VHH抗体 B16 (VHH, not shown: small tags and cut ends)
VHH: QVQLVESGGALVQPGGSLRLSCAASGFPVNHNAVHWFRQAPGKEREGVAGISHLVHRTYYEDSVKGRFTISRDDARNTVYLQMNSLKPEDTAVYYCAAYLWLLGGVYWGQGTQVTVGG
notes: also called B16
B5: 抗SARS-CoV-2 RBD VHH抗体 B02 (VHH, not shown: small tags and cut ends)
VHH: QVQLVESGGALVQPGGSLRLSCAASGFPVNRNTMHWFRQAPGKEREGVAGISSRGDWTYYEDSVKGRFTISRDDARNTVYLQMNSLKPEDTAVYYCAALLWNYGGVCWGQGTQVTVGG
notes: also called B02
B6: 抗SARS-CoV-2 RBD VHH抗体 B04 (VHH, not shown: small tags and cut ends)
VHH: QVQLVESGGALVQPGGSLRLSCAASGFPVNRNTMHWFRQAPGKEREGVAGISSRGDWTYYEDSVKGRFTISRDDARNTVYLQMNSLKPEDTAVYYCAALLWHYGGVYWGQGTQVTAGG
notes: also called B04
B7: 抗SARS-CoV-2 RBD VHH抗体 B13 (VHH, not shown: small tags and cut ends)
VHH: QVQLVESGGALVQPGGSLRLSCAASGFPVNHHTMLWFRQAPGKEREGVAGISFRGNWTYYEDSVKGRFTISRDDARNTVYLQMNSLKPEDTAVYYCAAHLWLLGGVYWGQGTQVTVGG
notes: also called B13

One assay has as its target T1, SARS-CoV-2 RBDタンパク質(Recombinant SARS-CoV-2, S1 Subunit Protein (RBD)、RayBiotech Life, Inc.) (SARS-CoV-2, UniProt P0DTC2 319-541). Put plainly: ELISA, RBD coated 50 ng/well, VHH 50 ng/well, anti-FLAG detection, A450, n=4. (ELISA stands for enzyme-linked immunosorbent assay.)
Turning to B1, the binding result is recorded as “binds”.

For B2, the binding result was “binds”.

A further assay concerns the target T1, SARS-CoV-2 RBDタンパク質(Recombinant …. In words: ELISA on coated RBD, legend of Figure 2, n=4.
On to B3, for which the binding result is recorded as “binds”.

B4: the binding result was “binds”.

As to B5, the binding result is “binds”.

B6: the binding result was “binds”.

For the molecule B7, the binding result is listed as “binds”.
